T1: recombinant human complement factor H (CFH), isolated from moss (human, UniProt P08603 19-1231)
T1 chain: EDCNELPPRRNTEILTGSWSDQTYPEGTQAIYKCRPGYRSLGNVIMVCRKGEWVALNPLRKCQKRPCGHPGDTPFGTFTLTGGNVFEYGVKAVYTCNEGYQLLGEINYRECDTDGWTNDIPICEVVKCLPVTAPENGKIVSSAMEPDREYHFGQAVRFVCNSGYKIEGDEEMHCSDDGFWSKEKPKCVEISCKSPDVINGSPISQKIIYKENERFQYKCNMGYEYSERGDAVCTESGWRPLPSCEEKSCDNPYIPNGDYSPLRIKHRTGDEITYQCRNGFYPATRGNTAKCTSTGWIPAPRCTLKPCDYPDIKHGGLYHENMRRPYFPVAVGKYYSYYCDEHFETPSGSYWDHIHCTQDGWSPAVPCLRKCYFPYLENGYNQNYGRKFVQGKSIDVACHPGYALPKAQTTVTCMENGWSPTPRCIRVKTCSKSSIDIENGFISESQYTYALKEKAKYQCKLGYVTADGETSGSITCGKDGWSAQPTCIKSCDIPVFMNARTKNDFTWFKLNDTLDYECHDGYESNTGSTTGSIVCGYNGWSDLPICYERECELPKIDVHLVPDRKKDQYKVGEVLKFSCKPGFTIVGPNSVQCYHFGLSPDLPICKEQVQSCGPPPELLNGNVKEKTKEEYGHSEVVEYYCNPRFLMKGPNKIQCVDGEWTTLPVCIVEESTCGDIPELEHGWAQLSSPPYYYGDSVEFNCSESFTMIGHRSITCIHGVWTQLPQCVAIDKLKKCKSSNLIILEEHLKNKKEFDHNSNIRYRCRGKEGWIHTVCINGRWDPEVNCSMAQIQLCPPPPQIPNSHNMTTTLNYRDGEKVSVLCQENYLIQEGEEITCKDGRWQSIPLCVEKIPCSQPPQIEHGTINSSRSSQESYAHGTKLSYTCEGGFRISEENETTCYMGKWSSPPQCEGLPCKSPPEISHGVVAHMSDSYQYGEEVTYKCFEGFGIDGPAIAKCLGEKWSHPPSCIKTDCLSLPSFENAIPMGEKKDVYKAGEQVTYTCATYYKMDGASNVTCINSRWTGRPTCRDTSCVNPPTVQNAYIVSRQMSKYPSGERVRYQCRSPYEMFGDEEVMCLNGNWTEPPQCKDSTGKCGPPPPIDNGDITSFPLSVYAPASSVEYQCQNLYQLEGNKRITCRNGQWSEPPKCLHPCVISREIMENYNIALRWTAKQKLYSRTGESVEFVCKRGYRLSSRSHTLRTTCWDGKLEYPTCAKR

B1: CFH binding protein of SEQ ID NO: 20 (CID 209864) (designed binder)
chain: IAAKFDEAQQAAFYEILHLPNLTELQRNHFIQTLRDDPSVSLWVLGLAQLLNDSQAPKIAAKFDEAQQHAFYTILHLENLTEEQRNAFIQSLRDDPSVSLEVLGEAIKLNISQAPK
B2: 209202 (protein)
chain: NAADLDEAQISAIFEIMDLPNLTWQQQEWFIDSLSDDPSVSKEVLGEAQKLNDSQAPK
B3: CFH binding protein of SEQ ID NO: 5 (CID 209447) (designed binder)
chain: NAAEADDAQVSAAMEIIMLPNLTLEQAHSFIESLYRDPSVSKEVLGEAQKLNDSQAPK

Key:
[1] = target: T1, recombinant human complement factor H …; assay: BLI; steady state
[2] = target: T1, recombinant human complement factor H …; assay: SPR; steady state

Binder	Kd [1]	Kd [2]
B1	421 nM	–
B2	–	35 nM
B3	120 nM	–

From patent US20230416313A1 (published 2023)
